Consider 1 protein from patent US20170275665.

The target of the data set is T1, Marinomonas mediterranea (MMB-1) Cas2, purified with N-terminal 6xHis tag.
T1 chain: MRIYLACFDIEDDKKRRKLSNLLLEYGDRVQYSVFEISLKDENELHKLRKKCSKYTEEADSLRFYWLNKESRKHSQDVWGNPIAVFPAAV

B1: Marinomonas mediterranea (MMB-1) RT-Cas1 fusion protein, wild type, purified with N-terminal maltose-binding protein tag (protein)
chain: MLNSPLIDAVLPLRSVVITLRWLSPSKTGFLHHAGLHAWVRFLAGSPEQFSDFIVVEPIENGHISYQAGDGYRFRITVLNGGESLLDTLFSSLKRLPESAANHPDIAGAFSDNLVLEKIEDTFEHHQVTQIEDLSVFDINALMLETAVWSRQRRFKVAFNTPARLVKPKPEDGTELKGQNRYCRDKSDLNWQLFTHRLTDTFINLFQSRTGERLQRQNWPEAQLHAGLAVWLNNSYTNKKEKKVKDASGMLAQMQIEIDDDFPADLLALLVLGQYIGMGQNRAFGMGQYQLQDAYGYCSYPRPQAAKSLLEKSLSDASLHQACQTMYPRQANFDSSDTDEEHHDAIDELLTKLYVSRERIFKREFTPSQLHSVEIEKPEGGTRLLSVPNWHDRTLQKAVTECLGNTLEHIWMKHSYGYRKGHSRLQARDQINQYIQQGYEWVLESDIESFFDSVNWLNLEQRLKLLLPNEPLVPLLMQWVSAAKQTEDEQTLARHNGLPQGAPISPILANLLLDDLDQDMIAKGHQIVRYADDFVLLFKSKAAAESALDDIITALKEHHLAINLEKTRIVEASQGFRYLGYLFVDGYAIETKREYRKEHAQLDKQLNASSLENEPSLQQEPAVQNEQSTLIGEREKLGTLLIIAGDIAMLSSEKQRLIVEQYDELHTYPWATLSSVLLVGPHHITTPALKSAMFHNVPVHFASQYGRYQGVSAGAAPSVFGADFWLLQAQYLQQETNALNISQVLIQARIEGIRAVISRREKDAPELNKIQRLDEKRLRAETLDQLRGYEGQASKQLWAFFQRILEEDWGFTGRNRRPPKDPINALLSLGYTYLYSLVDSVNRTVGLYPWQGALHQRHGYHHTLASDLMEPWRYLVEHVVLTLINRHQIHKDDFVIKENGCEMSSGARKTLLKELLVQLTKVPKGGNSLLTEMSNQSYRLALSCKMQQRFIAWSPKR
Turning to B1, the “cleavage of the CRISPR DNA substrate with ligation of a dsDNA oligonucleotide (in vitro cleavage-ligation assay, gel)” value was “products derived from cleavage of the CRISPR substrate were readily detected in the presence of RT-Cas1 and Cas2 together but not in the presence of either protein alone”.
